The source of these data is patent US20190352664A1, “COMPOSITIONS AND METHODS FOR CONTROLLING GENE EXPRESSION” (priority 2017, published 2019).

The test system of the data set is Arabidopsis. The data set is described as follows: Ribo-seq and RNA-seq global translatome profiling (translational efficiency TE, mORF/uORF ribo-shift) upon elf18 treatment. In kind it is in vivo. The arrangement: key to score (Ribo-shift): Up: ribo-shift up (i.e., increased mORF/uORF ratio); Down: ribo-shift down (i.e., decreased mORF/uORF ratio). Particulars: elf18 vs Mock; for score (TE change): translational efficiency fold change, listed as shows 5′ UTR of the transcript; for score (Ribo-shift): shift of mORF/uORF ratio, per uORF.

B1: AT4G24750.1: 5′ UTR of transcript; Rhodanese/Cell cycle control phosphatase superfamily protein (nucleic acid)
DNA: GAGTCTGGTTCGAAAAGACTGCTTCAATGAAGCCAAAACTATCCAATAACTCGAAATTGACTACTCTTTTCTTTTGTCTCTGTTGTTGATTCGCAAAGGCGAAGATTATCCATCTTCTCAGTTACTCCTACTGGAACCAAAAGCTCAGAACCTTAAAAC
Turning to B1, the “score (TE change)” value is given as “TEdown (389 genes displayed decreased TEfc (|z|≥1.5))”.

B2: AT5G14930.1: 5′ UTR of transcript; senescence-associated gene 101 (nucleic acid)
DNA: TATGGACTCTCGTTCTCAGACATTTATTTCTCTCAGTCTTACAATATAAATTTTCATTCTTACCATCCATAATTTTGTATTGTCTTCTCCACAGATCTATTCCAGCTCACGCC
modifications: listed as DNA, chemistry not fully specified
With B2, the “score (TE change)” value is given as “TEdown (389 genes displayed decreased TEfc (|z|≥1.5))”.

B3: AT1G19270.1: 5′ UTR of transcript; DA1 (nucleic acid)
DNA: CGTGGGGAACGTTTTTTCCTGGAAGAAGAAGAAGAAGAGCTCAACAAGCTCAACGACCAAAAAACTTCGGACACGAAGACTTTTTAATTCATTTCTCCTCTTTTGTTTTTTTCGTTCCAAAATATTCGATACTCTCGATCTCTTCTTCGTGATCCTCATTAAATAAAAATACGATTTTTATTCTTTTTTTGTGAGTGCACCAAATTTTTTGACTTTGGATTAGCGTAGAATTCAAGCACATTCTGGGTTTATTCGTGTATGAGTAGACATTGATTTTGTCAAAGTTGCATTCTTTTATATAAAAAAAGTTTAATTTCCTTTTTTCTTTTCTTTTCTCTTTTTTTTTTTTTTCCCCCATGTTATAGATTCTTCCCCAAATTTTGAAGAAAGGAGAGAACTAAAGAGTCCTTTTTGAGATTCTTTTGCTGCTTCCCTTGCTTGATTAGATCATTTTTGTGATTCTGGATTTTGTGGGGGTTTCGTGAAGCTTATTGGGATCTTATCTGATTCAGGATTTTCTCAAGGCTGCATTGCCGTATGAGCAGATAGTTTTATTTAGGCATT
Regarding B3, the “score (TE change)” value is “TEdown (389 genes displayed decreased TEfc (|z|≥1.5))”.

B4: AT4G32660.1: 5′ UTR of transcript; Protein kinase superfamily protein (nucleic acid)
DNA: AATTGGTGGATGTCGTCGCGGTTCGACCCCAAGGGATTTGGCCGGTAAAATTATTGGGAGTTGTCTTTCTCTTGCACTCTCTCTAGTTCCAAACCCTAGCAATTCCTCTGTTTTCACCATTTTCGGAGATTATCACCTTCTCCCCGATTCGCCGCCTTGTGATTACATCTACGTAAAGAGTTTCTGGTAGAAATTTTCCCTCTTTTAGCTGCAGATTGGCATCAGATTCCGTTCTGGATGTGTCGGTGATCGATTTTCCGCGTCGGTG
As for B4, the “score (TE change)” value is recorded as “TEup (448 had increased TEfc)”.

B5: AT5G11790.1: 5′ UTR of transcript; N-MYC downregulated-like 2 (nucleic acid)
DNA: AAACACAAAAAAACGAAGATAGCCATCGTTTTGGTGAGAGAAGAGAGAAGAGAGAAGAAGAAGGCCATGGAAAGATAATACTCTGCTTTTTTTTTAGAAATATACAGAGGAAATAAAGAGAGAGAGAAGGAG
On to B5, for which the “score (TE change)” value is given as “TEdown (389 genes displayed decreased TEfc (|z|≥1.5))”.

B6: AT4G32800.1: 5′ UTR of transcript; Integrase-type DNA-binding superfamily protein (nucleic acid)
DNA: ATTTCATAAATCATAGAGAGAGAGAGAGAGAGAGAGAGAGAGTTTGGAAACATTCCAAAACCAGAACTCGATATTATTTCACCAAAGAATGATAGAAACAAGAACTATCTTTTTATAAAACTCTTTACACCCCAAAAGAAAATGTCTCACTCGTTTTGCCTTATAATATTTCTTTCAACAACAACCCAAATCTACAAAAAATCCCAATAAAAAAAAACTTCAGTCTGTTTGACATTTTGTCGAACACTTGGACGGCATCACAAAAAGCTCTAAACTTTCTGACTACCA
As for B6, the “score (TE change)” value is “TEdown (389 genes displayed decreased TEfc (|z|≥1.5))”.

B7: AT4G34460.1: 5′ UTR of transcript; GTP binding protein beta 1 (nucleic acid)
DNA: GACCCTCTTCTCTCTCTCTAGCTAGTCTCAGGTCAGAGAAGCCATCATCAACATTCAACAAGAGAGCCGTGTTTGTGTCTTGACTGATTCTTCTCTCAAGCTTTTTTAATCTCTCTCTCTTTTCCCACGTAATTCCCCCAAATCCATTCTTTCTAGGGTTCGATCTCCCTCTCTCAATCATGAACCTTCTTCTCTTCTAGACCCCACAAAGTTTCCCCCTTTTATTTGATCGGCGACGGAGAAGCCTAAGTCTGATCCCGGA
On to B7, for which the “score (TE change)” value is “TEdown (389 genes displayed decreased TEfc (|z|≥1.5))”.

B8: AT5G15950.1: 5′ UTR of transcript; Adenosylmethionine decarboxylase family protein (nucleic acid)
DNA: ACAATATCACAAACTCGTTTGCTCTTTTCATCATTACTAAATCATAAGCGGCTCTCAAGTTCTTTAGGGTTTCGAGTTTTCTCAATCTCCTACCTGATTAAGGTTAATTTCTTATCTTGGATCAATAACAAGAGAATTATAACTCCGGATTGTAATCAATATTCCTCTACATAAAAAGCGTGAATGAGATTATGATGGAATCGAAAGCTGGTAATAAGAAGTCAAGCAGCAATAGTTCCTTATGTTACGAAGCACCCCTTGGTTACAGCATTGAAGACGTTCGTCCTTTCGGTGGAATCAAGAAATTCAAATCTTCTGTCTACTCCAACTGCGCTAAGAGGCCTTCCTGAGTACTAGCCAGTTCCCTCCATAGCTTTTCAATTACAACAATCTCCTTTTCTCAAAGCTCTGGTTCCCCAAATCCTCTCGTCTTTTGTTTGCCCTCACAACAACAACAACAACGCAGAG
For the molecule B8, the “score (TE change)” value is “TEdown (389 genes displayed decreased TEfc (|z|≥1.5))”.

B9: AT5G49980.1_1: uORF of AT5G49980.1; peptide SEQ ID NO: 36 (nucleic acid)
DNA: ATGGAGACGAAGTGGAGAGAGAAAGCTCCCACTCTCTCACACCCCAAAGCTTCTTCTTCTTCTTCCTCTTCTTCCTCTTCCTCTTCTCTAATCTGA
modifications: listed as DNA, chemistry not fully specified
For the molecule B9, the “score (Ribo-shift)” value is reported as “Down”.

B10: AT4G26080.1: 5′ UTR of transcript; Protein phosphatase 2C family protein (nucleic acid)
DNA: GAAGCAATTGTTGCATTAGCCTACCCATTTCCTCCTTCTTTCTCTCTTCTATCTGTGAACAAGGCACATTAGAACTCTTCTTTTCAACTTTTTTAGGTGTATATAGATGAATCTAGAAATAGTTTTATAGTTGGAAATTAATTGAAGAGAGAGAGATATTACTACACCAATCTTTTCAAGAGGTCCTAACGAATTACCCACAATCCAGGAAACCCTTATTGAAATTCAATTCATTTCTTTCTTTCTGTGTTTGTGATTTTCCCGGGAAATATTTTTGGGTATATGTCTCTCTGTTTTTGCTTTCCTTTTTCATAGGAGTCATGTGTTTCTTCTTGTCTTCCTAGCTTCTTCTAATAAAGTCCTTCTCTTGTGAAAATCTCTCGAATTTTCATTTTTGTTCCATTGGAGCTATCTTATAGATCACAACCAGAGAAAAAGATCAAATCTTTACCGTTA
For B10, the “score (TE change)” value is listed as “TEdown (389 genes displayed decreased TEfc (|z|≥1.5))”.

B11: AT4G24750.1_1: uORF of AT4G24750.1; peptide SEQ ID NO: 26 (nucleic acid)
DNA: ATGAAGCCAAAACTATCCAATAACTCGAAATTGACTACTCTTTTCTTTTGTCTCTGTTGTTGA
modifications: listed as DNA, chemistry not fully specified
In the case of B11, the “score (Ribo-shift)” value is reported as “Down”.

B12: AT4G38950.1: 5′ UTR of transcript; ATP binding microtubule motor family protein (nucleic acid)
DNA: AAGAACAAACAACTACCAAACTTGTAGGCAGTAGCAGGAGGAAGTGGGTGGGATTAACATTGTCATTTCTCTCTCTTTTTCTTTTACAAATCTTTCCGTTTTGTTTTCTTTTGGTTTTCCGGTGAGCACTGTTGTGTTTCCAATTCCGGCACTCTTTAGGGTTCCCTTTCAGAAGAAAACTTCACATTGTTGTTTCTCTCAACCGTGACATCTTGGATTACTACTTCTGACTACTTTCCTTTTTCATGTGCCCCAAAAGATAATAGTTACTTTTTCAAAATCTGGTTTTGTTGTTTGGGTTTGTGTCATTCATTGATAAAGTCACTAATGGAGAAGTACAAAACAATTGCAAAATTTCGAATCTGTGTTGTCATTGCTGAATTCTGTAGTGGATGTTTGCTTGCAGTTTAGAGCTTCGGAGTGCGAAGAGTGAGACACAAGAGGATTCTTTCTGGAACCGCATTATTCCCTTTAGAGGAGGAAGAAGAAGACAACTCACTCACAAGGAAAACAAAGGTTCCTCTGGTTACTCTGAAATATTCAAACCAATGGTGAGCAATTGGTAGCACTTGCTAAAGAAG
Consider B12, for which the “score (TE change)” value was “TEdown (389 genes displayed decreased TEfc (|z|≥1.5))”.

B13: AT4G37925.1: 5′ UTR of transcript; subunit NDH-M of NAD(P)H:plastoquinone dehydrogenase complex (nucleic acid)
DNA: ATGGTTCTGTAACCGGACAACATCTCAAAACTTGTTCTGTTTTTTTTTTTTCATTTCTTAGACAGAAAA
modifications: listed as DNA, chemistry not fully specified
notes: 5′ UTR of transcript; subunit NDH-M of NAD(P)H:plastoquinone dehydrogenase complex
With B13, the “score (TE change)” value was “TEup (448 had increased TEfc)”.

B14: AT5G15950.1_1: uORF of AT5G15950.1; peptide SEQ ID NO: 35 (nucleic acid)
DNA: ATGATGGAATCGAAAGCTGGTAATAAGAAGTCAAGCAGCAATAGTTCCTTATGTTACGAAGCACCCCTTGGTTACAGCATTGAAGACGTTCGTCCTTTCGGTGGAATCAAGAAATTCAAATCTTCTGTCTACTCCAACTGCGCTAAGAGGCCTTCCTGA
Turning to B14, the “score (Ribo-shift)” value is recorded as “Down”.

B15: AT5G49980.1: 5′ UTR of transcript; auxin F-box protein 5 (nucleic acid)
DNA: AAAAAATAATCCCCAAATAATGGAGACGAAGTGGAGAGAGAAAGCTCCCACTCTCTCACACCCCAAAGCTTCTTCTTCTTCTTCCTCTTCTTCCTCTTCCTCTTCTCTAATCTGAATCCAAAGCCTCTCTCTTT
As to B15, the “score (TE change)” value is “TEdown (389 genes displayed decreased TEfc (|z|≥1.5))”.

B16: AT5G57460.1: 5′ UTR of transcript (nucleic acid)
DNA: GAAGATCTCATTTCTCTTTCTCCTTTTCTTCTCCGACGATTCTTCTCAGTTCTCAGATCTGATCGATTTCTTCATCAGATGTTTCAATCTAACCATTGAGATTGAATAGTCACCATTAGTAGAAGCTTCGAGATCAATTTCGAATCGGGATC
Regarding B16, the “score (TE change)” value is listed as “TEup (448 had increased TEfc)”.
